Reference: paper PMC6063412 (2018)

T1: recombinant human PDGF-CC core domain protein (activated PDGF-CC, growth factor domain) (human, UniProt Q9NRA1 230-345)
T1 chain: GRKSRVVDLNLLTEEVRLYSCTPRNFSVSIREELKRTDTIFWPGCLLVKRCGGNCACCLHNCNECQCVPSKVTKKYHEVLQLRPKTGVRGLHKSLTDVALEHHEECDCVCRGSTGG

B1: monoclonal anti-PDGF-CC antibody 6B3 (antibody, V domains shown)
VH: QVQLQQSGVEVARPGASVKLSCKASGYTFRSYGITWVRQRTGQGLEWIGEIYPRSGKTYYNEKFKGKATLTADTSSSTVYMELRSLTSEDSAVYFCAREGYGYDGGYFDYWGQGTTLTVSS
VL: DIVMTQSPSSLAMSVGQKVTMSCKSSQSLLNSRNQKNYLAWYQQKPGQSPKLLVYFASTRESGVPDRFTGSGSGTDFTLTISSVQAEDLAVYYCQQHYSTPLTFGAGTKLELK
B2: monoclonal anti-PDGF-CC antibody 19C7 (antibody, V domains shown)
VH: QVQLQQSGVEVARPGASVKLSCKASGYTFRSYGITWVRQRTGQGLEWIGEIYPRSGKTYYNEKFKGKATLTADTSSSTVYMELRSLTSEDSAVYFCAREGYGYDGGYFDYWGQGTTLTVSS
VL: DIVMTQSPSSLAMSVGQKVTMSCKSSQSLLNSRNQKNYLAWYQQKPGQSPKLLVYFASTRESGVPDRFTGSGSGTDFTLTISSVQAEDLAVYYCQQHYSTPLTFGAGTKLELK
B3: monoclonal anti-PDGF-CC antibody 11F5 (antibody, V domains shown)
VH: QVQLQQSGAELARPGASVKLSCKASGYIFISYGISWVKQRTGQGLEWIGEIYPRSGKTYYNEKFKDKAALTADKSSSIAYMELRSLTSEDSAVYFCAREGYGYDGGYFDYWGQGTILTVSS
VL: DIVMTQSPSSLAMSVGQKVAVSCKSSQSLLNSSNQKNYLAWYQQKPGQSPKLLVYFASTRDSGVPDRFTGSGSGTDFTLTISSVQAEDLAVYYCQQHYSTPLTFGAGTKLELK

Biological target: T1, recombinant human PDGF-CC core domain …
Assay: SPR

Binder | koff
B1 | 0.0015 s⁻¹
B2 | 0.0016 s⁻¹
B3 | 0.00058 s⁻¹
